Source: the supplement of paper PMC9112550, “Optimization of the antimicrobial peptide Bac7 by deep mutational scanning” (BMC Biology, 2022)

Test system: Escherichia coli TOP10
Test: shrunken log2 fold change of peptide-encoding DNA abundance (4.5 h post-induction vs induction); higher = less antimicrobial activity (less host growth inhibition)
Conditions: time post-induction: 4.5 h; library: site-saturation at positions 5, 18, 19, 20
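Also: peptides expressed intracellularly from a pBAD plasmid library in pooled LB shake-flask culture, induced with 0.3% L-arabinose, DNA abundance read by NGS, three biological replicates, DESeq2 with apeglm shrinkage.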

Sequence | shrunken log2 fold change
RRIRIRPPRLPRPRPRPHIFPRP | -0.311
RRIRGRPPRLPRPRPRPGCHPRP | 0.549
RRIRLRPPRLPRPRPRPQYEPRP | -0.166
RRIRWRPPRLPRPRPRPLRMPRP | 0.531
RRIRFRPPRLPRPRPRPTYMPRP | -0.0541
RRIRHRPPRLPRPRPRPWWTPRP | 0.00261
RRIRYRPPRLPRPRPRPVQYPRP | -0.0125
RRIRNRPPRLPRPRPRPGYHPRP | -0.37
RRIRWRPPRLPRPRPRPDGKPRP | 0.00353
RRIRYRPPRLPRPRPRPDHQPRP | -0.167
RRIRERPPRLPRPRPRPIRGPRP | 0.0978
RRIRMRPPRLPRPRPRPCWEPRP | -0.0572
RRIRVRPPRLPRPRPRPPPGPRP | 1.01
RRIRYRPPRLPRPRPRPFTLPRP | -0.019
RRIRRRPPRLPRPRPRPWISPRP | -0.382
RRIRGRPPRLPRPRPRPDDRPRP | 0.814
RRIRARPPRLPRPRPRPNHHPRP | -0.223
RRIRVRPPRLPRPRPRPWPIPRP | -0.0661
RRIRIRPPRLPRPRPRPEWFPRP | 0.00757
RRIRRRPPRLPRPRPRPPFDPRP | 0.735
RRIRARPPRLPRPRPRPEIEPRP | 0.719
RRIRQRPPRLPRPRPRPGKCPRP | 0.0125
RRIRIRPPRLPRPRPRPNCSPRP | -0.175
RRIRCRPPRLPRPRPRPNPVPRP | -0.209
RRIRWRPPRLPRPRPRPFKLPRP | -0.044

Sequence | shrunken log2 fold change
RRIRQRPPRLPRPRPRPQCIPRP | -0.0582
RRIRVRPPRLPRPRPRPMDSPRP | -0.134
RRIRKRPPRLPRPRPRPTTTPRP | 0.494
RRIRHRPPRLPRPRPRPHISPRP | -0.226
RRIRIRPPRLPRPRPRPNDTPRP | -1.01
RRIRNRPPRLPRPRPRPWNWPRP | -0.0655
RRIRPRPPRLPRPRPRPWIFPRP | -0.0541
RRIRIRPPRLPRPRPRPSGTPRP | -0.0278
RRIRWRPPRLPRPRPRPDYCPRP | -0.0321
RRIRMRPPRLPRPRPRPTRMPRP | 0.685
RRIRYRPPRLPRPRPRPKMQPRP | -0.344
RRIRVRPPRLPRPRPRPCYKPRP | -0.691
RRIRQRPPRLPRPRPRPYRHPRP | -0.268
RRIRPRPPRLPRPRPRPQACPRP | -0.0282
RRIRYRPPRLPRPRPRPYQKPRP | -0.0257
RRIRRRPPRLPRPRPRPEGKPRP | 0.0207
RRIRMRPPRLPRPRPRPWVLPRP | 0.0155
RRIRHRPPRLPRPRPRPICCPRP | 0.055
RRIRARPPRLPRPRPRPAGGPRP | 0.678
RRIRSRPPRLPRPRPRPWHYPRP | -0.162
RRIRQRPPRLPRPRPRPNKTPRP | -0.0379
RRIRIRPPRLPRPRPRPIHFPRP | -0.0704
RRIRRRPPRLPRPRPRPERKPRP | 0.0556
RRIRYRPPRLPRPRPRPEMTPRP | -0.0508
RRIRRRPPRLPRPRPRPEVIPRP | -0.0658

Sequence | shrunken log2 fold change
RRIRIRPPRLPRPRPRPKRQPRP | 0.174
RRIRIRPPRLPRPRPRPFDAPRP | -0.0176
RRIRWRPPRLPRPRPRPKMEPRP | 0.577
RRIRMRPPRLPRPRPRPHHCPRP | -0.27
RRIRWRPPRLPRPRPRPYIHPRP | -0.405
RRIRCRPPRLPRPRPRPRICPRP | 0.183
RRIRTRPPRLPRPRPRPTQGPRP | 0.358
RRIRRRPPRLPRPRPRPTIAPRP | 0.0702
RRIRYRPPRLPRPRPRPSLVPRP | -0.291
RRIRQRPPRLPRPRPRPAWYPRP | -0.0125
RRIRPRPPRLPRPRPRPFSCPRP | -0.106
RRIRYRPPRLPRPRPRPGEFPRP | -0.35
RRIRARPPRLPRPRPRPPTEPRP | 1.2
RRIRKRPPRLPRPRPRPFHIPRP | -0.025
RRIRHRPPRLPRPRPRPHENPRP | -0.0891
RRIRGRPPRLPRPRPRPCYRPRP | -0.0861
RRIRMRPPRLPRPRPRPPEQPRP | 0.956
RRIRRRPPRLPRPRPRPCVGPRP | -0.147
RRIRFRPPRLPRPRPRPVNWPRP | 0.253
RRIRLRPPRLPRPRPRPTSWPRP | 0.199
RRIRGRPPRLPRPRPRPKGYPRP | 0.214
RRIRSRPPRLPRPRPRPFHAPRP | 0.042
RRIRIRPPRLPRPRPRPSSCPRP | -0.17
RRIRDRPPRLPRPRPRPNICPRP | 0.153
RRIRPRPPRLPRPRPRPLNEPRP | -0.348

Sequence | shrunken log2 fold change
RRIRDRPPRLPRPRPRPMKYPRP | 0.0311
RRIRTRPPRLPRPRPRPQCLPRP | 0.0552
RRIRQRPPRLPRPRPRPYAIPRP | -0.436
RRIRVRPPRLPRPRPRPLLTPRP | -0.0362
RRIRVRPPRLPRPRPRPSMHPRP | -0.177
RRIRCRPPRLPRPRPRPHFQPRP | -0.511
RRIRFRPPRLPRPRPRPRICPRP | 0.0102
RRIRFRPPRLPRPRPRPNNMPRP | -0.699
RRIRCRPPRLPRPRPRPFDKPRP | -0.493
RRIRKRPPRLPRPRPRPDEDPRP | -0.00112
RRIRGRPPRLPRPRPRPTRQPRP | 0.577
RRIRCRPPRLPRPRPRPPEEPRP | 0.301
RRIRIRPPRLPRPRPRPECNPRP | -0.324
RRIRSRPPRLPRPRPRPMPMPRP | 0.0988
RRIRTRPPRLPRPRPRPWLCPRP | 0.0607
RRIRWRPPRLPRPRPRPEWEPRP | 0.00016
RRIRRRPPRLPRPRPRPRQHPRP | 0.288
RRIRNRPPRLPRPRPRPAVWPRP | 0.583
RRIRCRPPRLPRPRPRPLTLPRP | -0.582
RRIRDRPPRLPRPRPRPNQWPRP | 0.151
RRIRVRPPRLPRPRPRPNGGPRP | 0.0985
RRIRARPPRLPRPRPRPQYIPRP | -0.566
RRIRARPPRLPRPRPRPLLHPRP | 0.264
RRIRFRPPRLPRPRPRPYDPPRP | -0.0102
RRIRKRPPRLPRPRPRPQSIPRP | 0.147

Sequence | shrunken log2 fold change
RRIRARPPRLPRPRPRPRMRPRP | 0.954
RRIRQRPPRLPRPRPRPYWQPRP | -0.411
RRIRHRPPRLPRPRPRPYGGPRP | -0.91
RRIRLRPPRLPRPRPRPFACPRP | 0.119
RRIRGRPPRLPRPRPRPEGDPRP | 1.94
RRIRPRPPRLPRPRPRPFFEPRP | 0.229
RRIRSRPPRLPRPRPRPYTMPRP | -0.19
RRIRFRPPRLPRPRPRPENHPRP | -0.84
RRIRARPPRLPRPRPRPGAPPRP | 0.703
RRIRARPPRLPRPRPRPYGWPRP | 0.0617
RRIRERPPRLPRPRPRPERSPRP | 0.149
RRIRGRPPRLPRPRPRPNCRPRP | 0.0979
RRIRCRPPRLPRPRPRPFFWPRP | 0.359
RRIRTRPPRLPRPRPRPVTFPRP | -0.0266
RRIRDRPPRLPRPRPRPQVKPRP | -0.0431
RRIRTRPPRLPRPRPRPLSMPRP | -0.238
RRIRDRPPRLPRPRPRPLMKPRP | -0.19
RRIRMRPPRLPRPRPRPYVHPRP | -0.0522
RRIRMRPPRLPRPRPRPYNYPRP | -0.2
RRIRARPPRLPRPRPRPHRKPRP | -0.000548
RRIRWRPPRLPRPRPRPFIMPRP | -0.0374
RRIRGRPPRLPRPRPRPDNHPRP | 0.125
RRIRPRPPRLPRPRPRPVVEPRP | -0.0705
RRIRGRPPRLPRPRPRPAVVPRP | 0.488
RRIRARPPRLPRPRPRPFVRPRP | -0.0552
